Source: publication PMC7232412

Assays:
[1] = target: HIV-1 Gag p6 (pGBT p6) (UniProt P04591); assay: yeast 2-hybrid assay; conditions: parent: est. 1.0; read off a plot
[2] = target: HIV-1 Gag p6 with ubiquitin fused to its C-terminus (pGBT p6-Ub), P04591;P0CG48; assay: yeast 2-hybrid assay; conditions: parent: est. 1.0; read off a plot

human Tsg101 wild-type (pGAD-hTsg101) (from UniProt Q99816) Y43A
ratio to parent [1]: 1.4
ratio to parent [2]: 1.5
